Experimental data: patent US20240025971A1

Tests used:
[1] = target: SARS-CoV-1 spike (pseudovirus) (SARS-CoV-1) (UniProt P59594); test: cell-based or functional assay
[2] = target: SARS-CoV-2 Wuhan-1 full-length Spike protein (SARS-CoV-2) (UniProt P0DTC2); test: cell-based or functional assay
[3] = target: SARS-CoV-2 Spike (S) trimer (SARS-CoV-2) (UniProt P0DTC2); test: ELISA, S trimer coated, 1:50 dilution

Row | Substance | Pseudovirus Neutralization [1] [µg/mL] | Pseudovirus Neutralization [2] [µg/mL] | Optical Density (OD; 450 nm) [3] [OD450]
1 | Anti-Nucleocapsid (Neg Control) (antibody) | > 50 | > 50 | –
2 | CA-1 (AB-009265) (antibody) | – | – | 2.74
3 | CB-6 (AB-009264) (antibody) | – | – | 2.81
